From article doi:10.1101/2023.10.08.561411, “Semi-synthetic nanobody-ligand conjugates exhibit tunable signaling properties and enhanced transcriptional outputs at neurokinin receptor-1” (bioRxiv, 2023)
One block for each molecule: values may come before it. Ends that are not written are not given here.

Assays:
[1] = molecular target: epitope-tagged neurokinin-1 receptor (NK1R) with three epitope tags (alfa, 6e, BC2) inserted into the extracellular N-terminus (UniProt P25103)
[2] = molecular target: epitope-tagged neurokinin-1 receptor (NK1R) with three epitope tags (alfa, 6e, BC2) inserted into the extracellular N-terminus (UniProt P25103); remark: listed apart in the source
[3] = molecular target: epitope-tagged neurokinin-1 receptor (NK1R) with three epitope tags (alfa, 6e, BC2) inserted into the extracellular N-terminus (UniProt P25103); remark: listed apart in the source
[4] = molecular target: epitope-tagged neurokinin-1 receptor (NK1R) with three epitope tags (alfa, 6e, BC2) inserted into the extracellular N-terminus (UniProt P25103); remark: listed apart in the source
[5] = molecular target: T1, neurokinin-1 receptor wild-type, lacking epitope tags (Homo sapiens, UniProt P25103); experiment: flow cytometry on cells; live HEK293 cells expressing the receptor, on ice 20 min in PBS with 2% BSA with biotin-functionalized nanobodies (0.1 pM – 1 μM); detected with APC-streptavidin; median fluorescence intensity; conditions: one partner purified
T1 construct: also called NK1R WT; NK1R wild-type; source: HEK293, stably transfected clonal line, on live cells
T1 sequence (P25103 whole entry): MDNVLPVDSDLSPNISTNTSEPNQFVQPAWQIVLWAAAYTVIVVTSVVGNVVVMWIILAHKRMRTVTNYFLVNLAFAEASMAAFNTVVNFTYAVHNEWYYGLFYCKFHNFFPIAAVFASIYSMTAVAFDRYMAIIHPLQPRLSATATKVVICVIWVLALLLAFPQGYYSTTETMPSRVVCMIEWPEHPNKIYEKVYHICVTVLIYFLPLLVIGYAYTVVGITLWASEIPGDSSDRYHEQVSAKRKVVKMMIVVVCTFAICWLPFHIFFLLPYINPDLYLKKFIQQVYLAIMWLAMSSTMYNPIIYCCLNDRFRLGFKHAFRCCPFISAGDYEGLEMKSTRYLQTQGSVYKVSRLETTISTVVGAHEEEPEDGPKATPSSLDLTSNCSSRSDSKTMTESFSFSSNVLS

Molecule: Nb_(alfa)-NKA conjugate
Gq activation (TRUPATH BRET), full efficacy; reduction in potency (EC50) relative to the comparator peptide [1]: < 6 fold | Gs-mediated transcription (luciferase reporter, 35 nM, 17 hours), fold against NKA [2]: > 5 fold | Gq-mediated transcriptional output (luciferase reporter, 35 nM, 17 hours), fold against G3NKA [3]: > 2 fold

Molecule: NbGFP-NKA conjugate (negative control)
Gq activation (TRUPATH BRET), full efficacy; reduction in potency (EC50) relative to the comparator peptide [1]: < 6 fold

Molecule: Nb_(alfa)-SP_(6–11) conjugate
Gq activation (TRUPATH BRET), full efficacy; reduction in potency (EC50) relative to the comparator peptide G3SP (6–11) [1]: > 60 fold | Gq activation (TRUPATH BRET); difference in EC50 relative to SP (6–11) [1]: < 4 fold

Molecule: NbGFP-SP_(6–11) conjugate (negative control)
Gq activation (TRUPATH BRET), full efficacy; reduction in potency (EC50) relative to the comparator peptide G3SP (6–11) [1]: > 60 fold | Gq activation (TRUPATH BRET); difference in EC50 relative to SP (6–11) [1]: < 4 fold

Molecule: GGGQFFGLM-NH2 [G3SP_(6–11), SP_(6–11) with an N-terminal triglycine extension]
signaling through the Gq pathway (TRUPATH BRET), EC50 [4]: 0.0003 µM

B1: Nb_(alfa), biotin-labeled (VHH)
VHH: EVQLQESGGGLVQPGGSLRLSCTASGVTISALNAMAMGWYRQAPGERRVMVAAVSERGNAMYRESVQGRFTVTRDFTNKMVSLQMDNLKPEDTAVYYCHVLEDRVDSFHDYWGQGTQVTVSS
notes: sortase A recognition motif at the C-terminus (LPETGG in the methods); if by sortagging, the His tag would be lost; source: E. coli BL21(DE3), purified (nickel-NTA, size exclusion chromatography)
binding result [5]: no binding (tested: 1 μM)

B3: Nb6e, biotin-labeled (VHH)
VHH: QVQLQESGGGLVQPGGSLRLSCAASGFVFENSAMAWYRQAPGKERELIAVIGTTFIKLAESVKGRFTISRDNAKSTVYLQMNNLKPEDTAVYYCSKSGAYWGQGTQVTVSS
notes: as for B1
binding result [5]: no binding (tested: 1 μM)

The next lines start with the values.

signaling through the Gq pathway (TRUPATH BRET), EC50 [4]: 0.0275 µM
Molecule: SP_(6–11), truncated version of Substance P (peptide)

binding result [5]: no binding (tested: 1 μM)
B2: NbGFP, biotin-labeled (negative control nanobody that targets GFP) (VHH)
VHH: QVQLQESGGALVQPGGSLRLSCAASGFPVNRYSMRWYRQAPGKEREWVAGMSSAGDRSSYEDSVKGRFTISRDDARNTVYLQMNSLKPEDTAVYYCNVNVGFEYWGQGTQVTVSS
notes: nanobody NbGFP against GFP; sortase A recognition motif at the C-terminus (LPETGG in the methods); if by sortagging, the His tag would be lost; source: E. coli BL21(DE3), purified (nickel-NTA, size exclusion chromatography)

binding result [5]: no binding (tested: 1 μM)
B4: NbBC2, biotin-labeled (VHH)
VHH: QVQLVESGGGLVQPGGSLTLSCTASGFTLDHYDIGWFRQAPGKEREGVSCINNSDDDTYYADSVKGRFTIFMNNAKDTVYLQMNSLKPEDTAIYYCAEARGCKRGRYEYDFWGQGTQVTVSS
notes: as for B1
